Laboratory results taken from patent US20190382455A1 (Sanofi, published 2019).

How the values were obtained:
MMP-9 proform = molecular target: T1, MMP-9 proform (UniProt P14780 20-707); test: SPR (Biacore T200), biotinylated fusion molecule captured on CAP chip, MMP-9 proform as analyte
T1 construct: Used as analyte in SPR; also called proform MMP-9; proform MMP9

activated MMP-9 = molecular target: T2, activated MMP-9 (UniProt P14780 107-707, limits assumed); test: SPR (Biacore T200), biotinylated fusion molecule captured on CAP chip, activated MMP-9 as analyte
T2 construct: Used as analyte in SPR
T2 sequence (P14780 107-707 limits assumed): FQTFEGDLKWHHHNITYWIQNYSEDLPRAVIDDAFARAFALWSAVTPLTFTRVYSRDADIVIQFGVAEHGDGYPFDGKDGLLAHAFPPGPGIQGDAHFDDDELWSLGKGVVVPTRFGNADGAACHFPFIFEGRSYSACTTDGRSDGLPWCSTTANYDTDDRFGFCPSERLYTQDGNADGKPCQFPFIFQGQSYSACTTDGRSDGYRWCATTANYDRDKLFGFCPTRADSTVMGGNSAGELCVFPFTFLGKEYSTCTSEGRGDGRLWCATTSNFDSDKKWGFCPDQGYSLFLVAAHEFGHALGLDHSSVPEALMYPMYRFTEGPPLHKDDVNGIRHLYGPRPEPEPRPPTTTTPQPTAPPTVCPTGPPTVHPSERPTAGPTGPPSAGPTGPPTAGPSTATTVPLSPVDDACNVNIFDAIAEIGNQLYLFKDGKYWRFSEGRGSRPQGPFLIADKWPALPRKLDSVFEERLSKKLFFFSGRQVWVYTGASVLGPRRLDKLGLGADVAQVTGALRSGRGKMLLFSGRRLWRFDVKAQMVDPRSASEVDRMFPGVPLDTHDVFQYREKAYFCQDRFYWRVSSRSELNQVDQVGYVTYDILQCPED

T1 sequence (P14780 20-707 limits assumed): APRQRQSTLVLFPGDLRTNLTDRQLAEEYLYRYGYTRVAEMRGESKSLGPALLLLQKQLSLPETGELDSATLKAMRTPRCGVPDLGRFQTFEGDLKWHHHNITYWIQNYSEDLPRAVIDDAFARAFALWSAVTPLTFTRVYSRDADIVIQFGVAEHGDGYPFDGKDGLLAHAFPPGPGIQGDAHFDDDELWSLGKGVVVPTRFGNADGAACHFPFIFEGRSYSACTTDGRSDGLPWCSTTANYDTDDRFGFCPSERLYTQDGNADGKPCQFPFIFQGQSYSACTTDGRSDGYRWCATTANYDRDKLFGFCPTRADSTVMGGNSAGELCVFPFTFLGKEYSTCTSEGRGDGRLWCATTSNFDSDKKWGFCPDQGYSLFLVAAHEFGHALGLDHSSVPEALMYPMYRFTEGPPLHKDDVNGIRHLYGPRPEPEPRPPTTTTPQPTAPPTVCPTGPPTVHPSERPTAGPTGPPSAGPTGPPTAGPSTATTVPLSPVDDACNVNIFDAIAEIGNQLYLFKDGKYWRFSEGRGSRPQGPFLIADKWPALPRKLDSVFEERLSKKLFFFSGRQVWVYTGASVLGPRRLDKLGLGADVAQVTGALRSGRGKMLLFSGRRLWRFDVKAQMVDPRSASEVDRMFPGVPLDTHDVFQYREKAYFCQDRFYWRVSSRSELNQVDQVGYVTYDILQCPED

B1: fusion molecule of SEQ ID NO: 134 (designed binder)
chain: QDSTSDLIPAPPLSKVPLQQNFQDNQFQGKWYVVGVAGNTILREDKDPGKMNAAIYELKEDKSYDVTDVRFIRKKCHYYIDTFVPGSQPGEFTLGNIKSYPGTTSQLVRVVSTNYNQHAMVFFKIVRQNREIFWITLYGRTKELTSELKENFIRFSKSLGLPENHIVFPVPIDQCIDGGGGGSGGGGSQDSTSDLIPAPPLSKVPLQQNFQDNQFQGKWYVVGWAGNTALREDKDPPKMPAVIYELKEDKSYDVTDVQFPEKECIYSTITFVPGSQPGEFTLGGIKSSPGQTSHLVRVVSTNYNQHAMVFFKYVTQNREGFNIALYGRTKELTSELKENFIRFSKSLGLPENHIVFPVPIDQCIDGGGGGSGGGGSQDSTSDLIPAPPLSKVPLQQNFQDNQFQGKWYVVGEAGNLARREDKDPMKMMATIYELKEDKSYDVTEVRFRHKKCKYDIVTFVPGSQPGEFTLGLIKSDPGQTPELVRVVSTNYNQHAMVFFKKVVQNREYFWITLYGRTKELTSELKENFIRFSKSLGLPENHIVFPVPIDQCIDGGGGGSGGGGSQDSTSDLIPAPPLSKVPLQQNFQDNQFQGKWYVVGHAGNQWLREGRDPRKMWATIYELKEDKSYDVTDVDFAIKKCLYRITTFVPGSQPGEFTLGNIKSHPGGTSGLVRVVSTNYNQHAMVFFKFVIQNREAFFITLYGRTKELTSELKENFIRFSKSLGLPENHIVFPVPIDQCIDG
modifications: biotinylated with EZ-Link NHS-PEG4-Biotin for capture on the chip
notes: also called RA10680550
MMP-9 proform
  binding result: no binding (tested: ≥1 µM)
Activated MMP-9
  binding result: no binding (tested: ≥1 µM)
